Experimental findings from the DeepSol protein solubility set are described below.

The nature of the series: soluble on expression in E. coli; label from the status in PepcDB or PDB records.
For the sequence “MGSDKIHHHHHHMISQRALEAFRAVMTTGTVSAAAEELNVSQPAVSRLVRDLEEYTQLRLFSRHGGRIVATREAHEFNAEIERSFLGLRVIEQAAREIRQGRRGTVSVAVMPALAQTILPDVMADVRVSHPDFRLELLAMPTQSIVRQVATRQCPLGLTSPTHHANEVDVVKSGSLPYRCVMPDGHPLAAYEIIRLQDLSGMEFINYTDATATGRMLDHRFAHMTTPPVVNARAPISPVIAALVRKGLGVAILDPFTAQDHVNRGGVSRPVQIDEEFHWSFIKPYGEKLSSDLMAVISIFEDLSKNYA”, the “soluble on expression in E. coli” value was “not soluble”.

With “SNAMNVWQVVGYKHSGKTTLMEKWVAAAVREGWRVGTVKHHGHGGEPARPEGVDSVRHERAGAVATAVEGDGLLQLHLRRPLWRLDDVLALYAPLRLDLVLVEGYKQERHPKVVLVRSEEDWASLQHLANIRAVIAWEPLEGPLAHPVFSLADDDEYIPWLMNEVRTRT”, the “soluble on expression in E. coli” value was “soluble”.

With “MKSAELKYLDFEDFTKLIALAKEKINPIYSSSFMIYIAAMTGMRFSELLGLTWDNVDFEKGQIYVKRTWDIYKNNFAPTKNDQSVRFLAIDSSTMQVMINYKEQQEKLLKRLEIEPEHPFVFYNIKNGLITNNSLNKQLRNMCKKLGFKKIITCHGLRHTHASTMLYKGINILYVSKRLGHSSLNVTMSVYSHILKELEEKDNENIKKIFSEINDELEHHHHHH”, the “soluble on expression in E. coli” value is reported as “soluble”.

Regarding “MEINADFTKPVVIDTDQLEWRPSPMKGVERRMLDRIGGEVARATSIVRYAPGSRFSAHTHDGGEEFIVLDGVFQDEHGDYPAGTYVRNPPTTSHVPGSAEGCTIFVKLWQFDPADRTQFSKNMEAELGAPVEGISTSLLHEDERETVTHRKLEPGANLTSEAAGGIEVLVLDGDVTVNDEVLGRNAWLRLPEGEALSATAGARGAKIWMKTGHLRFVRTPEV”, the “soluble on expression in E. coli” value is given as “soluble”.

As for “MDDLEGKKCIGCQKPAKLRCPTCIKMSLPDAYFCDQSCFKAFWPIHKFSHSDVNGPYNPWPCYSFTGSLRPGRVTDRRPVPDHIPRPDYALHPQGVSLEERQSKSERVIKVLTDEEKEGLKVACKLGRECLNEAAKACGPGVTTEEIDRVVHEAAIERDCYPSPLGYYKFPKSCCTSVNEVICHGIPDMRKLENGDLCNVDVTVYHRGFHGDLNETFLVGDKVDEESRKLVKVTFECLQQAIAIVKPGVKFREIGNVIQKHANANGFSVVKGYCGHGIHRLFHTAPNVPHYAKNNATGVMKAGNSFTIEPMINAGTYHDDKWPDDWTAVTRDGRRSAQFEQTLLVTDTGCEILTKRDGNRPWFMDQIEQSY”, the “soluble on expression in E. coli” value is recorded as “soluble”.

As to “MGRQIPPDPVFGDVLVAKLINRVMWDGKKTIAQKIVYGAFDIIREKTKKDPLEVFRQAVENVKPVLEVRPRRVGGATYQVPIEVQEPRRTSLALRWIVEAARAKKGRPMKEKLAEEIIAAYNNTGTAIKKKEDTHRMAEANRAFAHYRW”, the “soluble on expression in E. coli” value is on record as “soluble”.

As to “MDMGLREMCVGEKRTVIIPPHLGYGEAGVDGEVPGSAVLVFDIELLELVAGLPEGYMFIWNGEVSPNLFEEIDKDGNGEVLLEEFSEYIHAQVASGKGKLAPGFDAELIVKNMFTNQDRNGDGKVTAEEFKLKDQEAKQDEL”, the “soluble on expression in E. coli” value was “soluble”.

On to “MSLSEEILINITPMESRVAVVENGVLQEVHVERTQRRGIVGNIYKGRVVRVLPGMQAAFVDIGLERAAFIHAAEISNREGSAVESISALVHEGQALVVQVTKDPIGTKGARLTTHLSIPSRYLVYMPRTSHVGISLRIEDEVERERLKKVVADCVAAEGIEGQGGFILRTAAEGAGEDEILADIRYLRRLWDQIAAQIQTVGAPSVIYEDLSLAIRTLRDLVNPRIEKIRIDSRENFQKITSFVEELMPEISDRLEHYPGERPIFDLYGVEDEIQKALERKVLLKSGGYLIVDPTEAMTTIDVNTGAFVGHRNLEETIFKTNLEAATAIARQLRLRNLGGIIIIDFIDMEDEEHRRQVLRTLEKQLERDHAKTNIIGITELGLVQMTRKRTRESLVQILCEPCPCCQGRGMLKTAETTCYEIFREILREARAYQADSYLVLANQKVVDRLLDEESGNVADLEAFIGRTIKFQVEAMYSQEQYDVVLLEGGSHHHHHH”, for which the “soluble on expression in E. coli” value is on record as “soluble”.

For the sequence “MFYAHNVDFRVFADFLYLLRVRNSGNVVLILDNASFHKSSYVLATASRLNINLLFLPPYSLDLNRIEFGRI”, the “soluble on expression in E. coli” value was “soluble”.

For “MKLLQKQQQQGGGDNQDQNKENNHDKKQPQNNPNNNNQGGQQQPQPSKQDNTQKDQQPRQNEMSRESAEKILKAYEQDEEKTREKVEQMRKQRMKQQKGNSTKQW”, the “soluble on expression in E. coli” value was “not soluble”.

Take “MGSDKIHHHHHHMNNLDIKTLGQVFTPKKIVDFMLTLKHNHGSVLEPSAGDGSFLKRLKKAVRIEIDPKICPKNALCMDFFDYPLENQFDTIIGNPPYVKHKDIAPSTKEKLHYSLFDERSNLYLFFIEKAIKHLKPKGELIFITPRDFLKSTSSVKLNEWIYKEGTITHFFELGDQKVFPNAMPNCVIFRFCKGNFSRITNDGLQFLCKKGILYFLNQSYTQKLSEVFKVKVGAVSGCDKIFKNEKYGNLEFVTSITKRTNALEKMVFVNEPNDYLLQHKDSLMQRKIKKFNENNWFEWGRMHHISPKKRIYVNAKTHQKNPFFIHQCPNYDGSILALFPYNQNLDLQNLCDKLNAINWQELGFVCGGRFLFSQRSLENALLPKDFLNLG”: the “soluble on expression in E. coli” value was “not soluble”.

Take “MSLTGKPIVLGLTISTTAAAGVADHADHMNGSLLAQEEINANGGILGRPLELRPVDVDLLSAESCQASIRKLVDLKVHAISSPFLFVPIPAMDASANYKCPYVNGNTQRAATDMVAKHPEKYNHIFQMDPSEVFYGETFPVFLESLADSGNWKPKNNKVHIVQEQIAYCQTISRACQEALKKSRFELAKVTDIQYPVQDWGSVIRDIKKTGAGTVMMDHWVAAEYAAFCKQFRANPLKGTLIYLQYGPSQPEFLELTGKAAEGFVWSTMLGVYADKKGQAFRDKYQKRFPGKTMGLCYTGGGYDIAYMMAQAWNAVGNPDDFKAVNDYIRKTAFRGVCGWSYMNNPRQEARHFPLGTDSIESGMSQLYFQIQDGKNKIIYPPQLKEGHHHHHH”: the “soluble on expression in E. coli” value is “soluble”.

As to “MSLYENKKVVAIGGGHGLGRMLAALKVFGSNATGIVTTTDNGGSTGRIRHCQGGIAWGDTRNCINQLITEPSISSMMFEYRFKGAGELNGHNLGNLMLTALDNLSVRPLDAINLIRNMLKVDVNILPMSEHPSDLAALAMDGKWVTGETSVDEMTQDLRRLDLAPEVPATKEAVTAIQDADCVILGPGSFLTSVMPPLLLPELGKAIARNQTAKVIFVENLSPEYGPAGRMSLEQKLEWCERACQGRKIDVVLGHHPHPELEQRWNFVTRDLASANRDWRHDRQKLRQAIEEQLMNLEHHHHHH”, the “soluble on expression in E. coli” value is recorded as “soluble”.

In the case of “MPKIAKSDRLENVAFEYIKNKITTGEYPTGYRVVEAKLSQELNMSRTPIRRAIINLCHSGFLVHQYNRGAFVQNTEVTITEFFSRMKLVELLVYESTEKLALREDYIVVDDIIEIAEKVIQYEKNREYELMRGAFEDFISTFIGKLNNDYFNRVIQDLWNEINDNATKEVRLIIVSASDRIAEELAHMIEILKSWNYEQLKKCFQHIMNAMILIAF”, the “soluble on expression in E. coli” value is given as “not soluble”.

As to “MSSRVLTPDVVGIDALVHDHQTVLAKAEGGVVAVFANNAPAFYAVTPARLAELLALEEKLARPGSDVALDDQLYQEPQAAPVAVPMGKFAMYPDWQPDADFIRLAALWGVALREPVTTEELASFIAYWQAEGKVFHHVQWQQKLARSLQIGRASNGGLPKRDVNTVSEPDSQIPPGFRG”, the “soluble on expression in E. coli” value was “soluble”.

For the sequence “MGSDKIHHHHHHMTCKRALTAYPELLSRTVAAPSWVMPGTVRDNAIFLSGEVDEVGLCFFETAACLAYGENDLPEHLADLPLGWHVHLPGDLPWCDGGAEAAVPALRLMDKVAFLGAHRAVLHPPVGFADGAARLVAFVRAWEAAGRNPEDLCLENIRGEDLTGLWRTLCDLGCKVCLDMGHVLSYGQYGLLSLPGLSGRTSMLHANAPGPAGRHLSLDTLDGAGGGVGRAMCALLPDDAVVMVEVFDWEGVRRSLPLLETWFAAQR”, the “soluble on expression in E. coli” value is recorded as “not soluble”.

For the sequence “MLEGVIRESITKANAKALKKDGYLIANVYGKGIENVNGAFKLNPFIKYLKEKKHLIFPVKLGDKTFEVVVQEYQKNPVTNELIHVDLLAVTKGVKSKFKVPIKHQGTPVGLKNKGILMLSKKRISVECAPEHLPDHYLVDVAPLDVNESILVRDLEKHENVKILDHDSIAVIGVIKAK”, the “soluble on expression in E. coli” value was “not soluble”.

Take “SNSALYNVDAGHRAVIFDRFRGVQDIVVGEGTHFLIPWVQKPIIFDCRSRPRNVPVITGSKDLQNVNITLRILFRPVASQLPRIYTSIGEDYDERVLPSITTEILKSVVARFDAGELITQRELVSRQVSDDLTERAATFGLILDDVSLTHLTFGKEFTEAVEAKQVAQQEAERARFVVEKAEQQKKAAIISAEGDSKAAELIANSLATAGDGLIELRKLEAAEDIAYQLSRSRNITYLPAGQSVLLQLPQ”: the “soluble on expression in E. coli” value is “soluble”.

Regarding “MSLSKRILSPLQNNGILGEFYGVIIRAIEENCGRLGMNVELKMLENFSESNGADGYIFIGGDLSEKTLKEIKSRKKPFVLVDHYIPGERVDCVISDGYDGAVYATNYLISKGFKRIVHVHGPLHPYGFKMRYDGYKDAMEKAGLMPRFYECDDTEEGTRKVIDIMLNSYGTPEAIFTSNDSIAFWVIKRLKEHNIKVPDDVSVIGFDDIVDAENFDPPLTTLRVFKYEMGCLACKRLHELLTGINPHPVRILVFTQFVKRKSTKEGHHHHHH”, the “soluble on expression in E. coli” value is “soluble”.

Take “MFCTLAGYRWLNSGSLLRRLSQRAVRRLPTAPLCHLHNGATESAASNGALRIVDEKVAYRRYATVFERTVQYPDGRHVTYDILGQPAVQSASVLVFPFDTQSKTCYVIREYCPGPNRVLYGFPAGMVETKHESLEAAARAELSEEAHLRCAQLIDLTAQAAVWERSFEVPNTASDAENCLRGFFADKYSRNVCKMYLALNPEPDGHPGSMDAEELIEQVGAVRVPQLEAWLWSGQMTMPHMLLAMCALTYLRQRGMLT”: the “soluble on expression in E. coli” value is “not soluble”.

Consider “MSLKILILGGTRFLGRAFVEKALNRGYEVTLFNRGTNKEIFPEVEQLIGDRNGDVSSLENRKWDVVVDTCGFSPHHIRNVGEVLKDNIEHYIFISSLSVYKDWIPHHIKEDYILQPEPTAEQIKAVENGEVSPYEYYGALKVLCEKEAEKYWPGRVLHVRAGLLSGMFDYTDRLPYWIGRVAKGGEVLVPGRKDRPVQIVDIKDVANWGLNMAENNKAGIFNVTGPNYDLTMEELLNTCKKVTNSDAEFVWIEESFMNEHKVQPWTEMPLWIPETFSLEGETKPWKGGFSISINSAIKAGLTFRRLEDTVMDVYVWMKSIEEWELKAGISGEREKELLEKWYQEGHHHHHH”, for which the “soluble on expression in E. coli” value is listed as “soluble”.

As for “MKKSRYTETQIVKILKEVEAGRLVKEICREYGISDATYYNWKAKYGGMESSDIKRLKDLEEENRRLKQMYAELSLDHKILKDIVEKKLLEHHHHHH”, the “soluble on expression in E. coli” value was “not soluble”.

With “MSLVDIHSHIIPGIDDGSNSLETTLNMMSIAKEAGVTKMVATSHYYRGKFENSISVIEKKANELNYTLKEKGVDIDVIPGQEVFIDNYTLKDYKEGIIGTINNTDYMLVEFDMMSLGENAIDTLYELQIKGIKPIIAHPERYTYIQKDIYKINELMDENIYFQVNAGSIEGLFGKTVQKTALKLVEEGVISFIASDAHSAGKRCPGYEKALHDLTKIDKTLAEKFIKNSNLLLENEKIENKVRKLKKKKTFFSFLKEGHHHHHH”, the “soluble on expression in E. coli” value was “soluble”.

As to “MGSDKIHHHHHHLLGDDPFLVINGDVFIDTLPVMPELKSINPDNGCLAHLWLVENPSQHPNGDFGFVSQEGVTTAELSQGPLSADLKLNFTFSGIGLYHPQLFDDIPEGPVPLGPLLREKMALGQVQGQLHRSFWCDVGTLERLAQLETRLELAARR”, the “soluble on expression in E. coli” value is recorded as “not soluble”.
